Measurements reported in patent US10801046B2, “Methods and materials for biosynthesizing multifunctional, multivariate molecules via carbon chain modification” (INVISTA NORTH AMERICA S.A.R.L., priority 2016, dated 2020).

Experiment: In vivo aminotransferase activity screening, 7-aminoheptanoate by LC-MS
Format: cell-based, Escherichia coli
Conditions: in vivo conversion of 7-oxoheptanoate to 7-aminoheptanoate, 120 aminotransferases screened
Method: A 165-member aminotransferase library from Twist on IPTG-inducible T7- pUC expression vectors was co-transformed into T7 Express lysY/Iq with a constitutive expression pJ23150-derived plasmid bearing the phosphopantetheinyl transferase sfp from Bacillus subtilis, CAR_Srot from Invista and BioC from Serratia marcescens (UniprotKB Accession No. P36571 (SEQ ID NO: 165)). The resulting strains were incubated in 0.5 ml of rich media (terrific broth or LB containing 8% glycerol) supplemented with 0.4 mM IPTG and received 1 g/L monomethyl heptanedioate, 1 g/L heptanedioate, or no organic acid addition, depending on the experiment. Following incubation overnight at 37° C. in a shaking incubator, cells were pelleted and the supernatants were analyzed using LC-MS for 7-aminoheptanoate or monomethyl 7-aminoheptanoate. A Vibrio fluvialis aminotransferase (UniProtKB Accession No. F2XBU9 (SEQ ID NO: 128)) was used as a positive control.

Molecule	7-aminoheptanoate yield compared to the positive control (F2XBU9)
SEQ ID NO: 174: Candida tenuis aminotransferase (protein, listed as Candida tenuis, Candida tenuis (strain ATCC 10573 / BCRC 21748 / CBS 615 / JCM 9827 / NBRC 10315 / NRRL Y-1498 / VKM Y-70), Candida tenuis aminotransferase) MNSSKSQICLATERQYSAKNYTPMPVVFKKAIGCKVWDVDDNEYLDFGGSYCATNQGHSHPKIVQALIDQAQICALPSRAFTHNLYGDYIKFVCQYFDFEKALPLNGGSEAIEFAIKLARAWGYTKKGISQNEAIVLFAANNYHGRTLGSTSASTTPGARKNYGPFLPKVGPYYGSEGKFIRYNHIEDIEEAFKTDGPNIAAIVLESLQGEAGIYVPKDGYLQQVKRLCEEYNILYIADEVQMGAGRTGTLLSCEQDGIKPDVLVVAKSIGGGVYPTSLVLSSGEIMDCIEPNSHGATFSGSPLSCATSKVALEVLIEDNMIDNAKHLGKIMLDGLNSIREKSSIITDVRGRGLMAGFDIDESQLNGKKVWHVCMLLRSKGIICKMVHAKTIRWAPALVITEEELRFGLRMLEQTINEITALEIADIPDAVTFDYLRY	higher 7-aminoheptanoate yields
SEQ ID NO: 169: Marine sediment metagenome aminotransferase (protein, Description of Unknown: Marine sediment metagenome, Marine sediment metagenome aminotransferase) MTVQPNSIEARDIAFHLHSYTNARKHETNGPVVIDKGEGVFVTDTDGNRYIEAMAGLWSVAVGFGEKRLVDAAAKQMGKLPYYHTFTHKSHSPAIELAEKLVAMAPVPMSKAYFTNSGSEANDTMMKLVRYRSNALGQPQKKKFISRMRGYHGVTLASASLTGLVNNHRDFDLPIEGVLHTTCPHYWREGRDGESEEDFATRCAEDLEAMIQAEGPETIAAFIGEPVMGAGGVVVPPATYWEKIQAVLKRHDILLVADEVICGFGRTGEMFGSQTYGIEPDIMTLSKALSSSYLPISALLINEKVYGPIADRSAEIGTLGTGYTASGHPVAAAVALENLKIIEERDLVGNAREMGTLMQCRLRELENHPLVGEVRGVGLIAAIELVTDKKAKVAMQPPGAMAAQAFAILQKNGVISRAIGDALAFCPPLIIEAGHIDTIVETTRRSLDELQASL	higher 7-aminoheptanoate yields
SEQ ID NO: 171: Tistrella mobilis aminotransferase (protein, Tistrella mobilis (strain KA081020-065), Tistrella mobilis aminotransferase) MAYSPNSPEARDIAYHLHSYTDARRHEETGSVVLEKGDGVFVEDIHGNRYIEAMAGLWSVALGFSEKRLADAAARQMAKLPFAHTFSYKSNGPVIDLAEKLISLAPVPMSKVFFTNSGSEANDTILKLLWYRSNSMGQPQRKKIISRVRGYHGVTIASASLTGLPNNHRSFDLPIANVLHTGSPHHWKDANPGESEEDFATRRAEELEAMILAEGPETIMAFIGEPVMGAGGVVVPPATYWEKIQAVLAKYDILLIADEVICGFGRTGNMFGSQTYDMRPDIMTMSKQLSSSYLPISAFMINEKVYGPIADESHRIGVLGHGFTAGGHPVASAVALENLKIIEERDLVANAREMGERLRGRFHALEGHPLVGEVRGVGLIAAVELVTNKEAKTALEAPGALGGKVAAALQARGVIVRNMLDAIAFCPPLIIKAEEVDMIADRFEAVLNDVAAEVL	higher 7-aminoheptanoate yields
SEQ ID NO: 173: Methylobacterium aquaticum aminotransferase (protein, listed as Methylobacterium aquaticum) MLSNLATRDVETLIHPYTNLAAFRQTGPLVLERGHGVWVYDTDGRPYLEGMAGLWCTALGYSNEELVEAAREQMSRLPFTHLFSGRSHDPAIELAETLKELAPIPVSKVFFTSSGSEANDTQVKLTWYLNNALGRPQKKKIIGRHKGYHGVTVASASLTGLTANHADWDLPLPGFLHAACPHHYRGAEAGETEEAYSARLATELEEMILREGPETVAAFIAEPVMGAGGAIVPPKGYFAAIEPVLARYDVRFIADEVICGFGRLGTWFGSEALGMKPHSLSFAKALTSAYMPLGGVTVDETLYQAMQDQSRKIGTFGHGTTYSGHPVASAVALKTIEIYRRDKIIEGAAEKAPHFQRRLSALEEHPLVGEAKGMGLIGGLEIVADKATKRQYDPKAGVAARCVAFAQEEGLIVRFLTGDRVAVCPPLVIRPDEIDTLFDRLGTALDRTQAWIREQGLTAA	higher 7-aminoheptanoate yields
SEQ ID NO: 170: Acidimicrobium ferrooxidans aminotransferase (protein, Acidimicrobium ferrooxidans; Acidimicrobium ferrooxidans (strain DSM 10331 / JCM 15462 / NBRC 103882 / ICP), Acidimicrobium ferrooxidans aminotransferase) MGRFWHPFGQLYESDTNPVVFVRGEGIWVYDDTGRRYLDATAALWYANVGHGRAEIADAIAAQARELAGYSTFGTFSNRPAEELAEFLSARSPMPESEVFFVSGGGDAVETAVKLARRYFSLVGQPERTVLISRTNGYHGTWGFGTSLGGIPANRTGFGELIPTTVQVPWDDVEAVEAAIVANGPERVAAVIAEPVIGAGGVYPPPPGYFEALGATCRRHGVLLIVDSVICGFGRLGTWFGIERLGVEPDLITFAKGVTSGYLPLGGVMVSGRVAAPFKQPGAPVFRHGPTYGGHPTCTAAGIANCRILEDEQILARGAVLEGELLARLRPLASSALVAEVRGGLGLLGAVELRSDLLAEHPDALARLARLALERGIIVRVLATSIALSPPLIIEPAEIGVIVEGLADALDALAAEL	higher 7-aminoheptanoate yields
SEQ ID NO: 121: Haematobacter missouriensis aminotransferase (protein, listed as Haematobacter missouriensis) MMDTLPNSLAARDVKYLLHPNTNARMHEQNGPMVISRGDGIHVYDDAGKEYIEALAGLWSVAVGFGEKRLVEAAQRQMSTLPYYHIFSSKSHEPAIDLAETLVKMTPEHLTRVFYTNSGSEANDTVVKMIWYYNNVLGRPEKKKIIARKNGYHGITVASASLTGLPINHKDFDLPLPQMKHVTTPHFYRFGEEGETEEQFSDRLAQEIEDMILAEGPETVAAFIGEPVIGAGGVLVPPKGYWEKVQKVLKKYDILLVADEVIMGFGRSGKTFACEYYGIKPDFLVLSKQITSSYQPLAAIMLTDAIYQAIADGSQKNGAFGHGYTASGHPVAMAVAIENLKIIEERGLVANAEKVGAYMQKRLREFADHPLVGEVRGVGLIAAVELVADKATKAKFDPVGKAGAIYTRKSAENGLINRAIGDTICFCPPLIITEAQVDEMIARFSKSLDETAAELKG	higher 7-aminoheptanoate yields
SEQ ID NO: 168: Rhodospirillum centenum aminotransferase (protein, Rhodospirillum centenum (strain ATCC 51521 / SW), Rhodospirillum centenum aminotransferase) MPSTAPHLGNSIASRDIASLLHPYTNLKAHESVGPMVITGGRGVTVVDDAGREYIEGVAGLWCTSLGFDEPRLVEAAVRQLRTLPFYHAFAHKSHEPGIELAEKLVALAPVPMSKAFFACSGSEANDTAVKLVWYYNNALGRPQKKKIIGRIKAYHGVTVASASLTGLPNNHRDFDLPIDRILHTDCPHWYRFHEEGEDEEAFASRLAASLEALIQREGPETVAAFIAEPVMGAGGVIVPPRTYFEKIQAVLRKHDVLLIADEVICGFGRTGAMFGSETFGLKPDIMTMAKALTSAYMPLSAVLVSEPIYRACVAESEKIGVFGHGYTYSGHPVSCAVALETLKIYEERDIVAHTRAVGARLQEGLARYRSHPLVGEVRGVGLIAGVELVADKATRQPFDPKLGVAARLAGFAQGHGAILRPIGDTLGFSPPLIITPEEVDELVARFGRALDDTTAWLEHEHRFRPA	higher 7-aminoheptanoate yields
SEQ ID NO: 172: Pseudomonas taiwanensis SJ9 aminotransferase (protein, Pseudomonas taiwanensis SJ9, Pseudomonas taiwanensis SJ9 aminotransferase) MSQSNILLAKKDVQHHLHPYTDARLHQDVGPLIIDRGEGVYVFDVEGKRYIEAMSGLWSVALGFSNERLVKAAEQQMRKLPFYHIFTHKGHGPSIELAEKLIEIAPVPMSKVFFTNSGSEANDTVVKMIWYRNNALGKPEKKKFISRLNAYHGITAVSASLTGLPVNQRGFDVPLPGFHHVSCPHFYRNGQPGETEEQFADRMAAELESVILREGPETIAAFYGEPLMGAGGVIVPPRTYWEKMQAVCRKYDILIVADEVICGFGRTGKMFGCETFGIQPDVMVISKQMSSSYQPIAAILINEKVFEGIADQSRALGTLGHGFTASGHPVASAVALENIKIIQEQNLVGHAAEMGELLRAKLAGFADHPMVGEVRGCGLIAAVELVTDRKTKAPFETVGRLGRFLAARAQAHGMITRPIGDSIAFCPPLISTKQEIQEIADIFGKAFEDTERWFSQGGK	higher 7-aminoheptanoate yields
SEQ ID NO: 138: Thalassospira profundimaris WP0211 aminotransferase (protein, Thalassospira profundimaris WP0211, Thalassospira profundimaris WP0211 aminotransferase) MNHRPNSLHMSDIAHSMHPYTNMRLHEEKGPMIMAEGNGARVTDSEGKEYIEGLAGLWSVAVGFSETRLADAAYAQLKRLPYYHSFAHKAHEPSIRLAEKLVEMTPEGLNRVFFTNSGSEANDTVVKMAWFLNNGLGRPEKKKFLSRTKAYHGITIASGSLTGLAGNQKDFDLPAIPVTHLSCPHFWRYGEEGETETEFTARLLKELEDTIIAEGPETIAAFIGEPVMGAGGVMTPPEGYWPGVVEICHKYDILVVSDEVINGFGRTGARFGCEKYGFTPDILVTSKQLTSSYMPLAAIVVNDKVYNAIADNTAKLGNFGHGFTGTGHPVACAVGLENLNIIEERDLMGNAKRLEPMFQDGLRAFADHPLIGEIRGVGLIAGLEMADKKTKQPFGKPGTVAAKVVALAAEEGLICRNVYDTVALCPPLIVTEDDVREIHARLGRALDRALDWAKSEGML	higher 7-aminoheptanoate yields
